Experimental findings from patent publication US20060246440 are described below.

The data set addresses T1, GP-NRSF1-8 (UniProt Q13127).
T1 sequence: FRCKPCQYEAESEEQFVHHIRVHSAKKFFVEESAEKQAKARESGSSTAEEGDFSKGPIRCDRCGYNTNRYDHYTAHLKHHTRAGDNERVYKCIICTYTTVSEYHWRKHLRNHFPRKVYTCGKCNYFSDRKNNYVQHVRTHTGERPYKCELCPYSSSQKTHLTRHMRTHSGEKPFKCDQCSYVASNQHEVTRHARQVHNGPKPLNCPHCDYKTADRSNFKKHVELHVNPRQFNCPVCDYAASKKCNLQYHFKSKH
Nature of the data set: one_hybrid. To be noted: bacterial two-hybrid lacZ reporter; nearly 7-fold vs Gal11P only.

The substance consensus NRSE (21 bp) gave an activity (fold activation) of 7.
